According to US7316915 (TANOX, dated 2008):
Where no end group is shown, it is not given here.

Experiments:
[1] = target: T1, BakΔ3 (N-terminal deletion mutant of Bak, amino acids 96-210 of full-length Bak) (Homo sapiens (Human), UniProt Q16611 96-211); assay: GST pull-down from Sf9 extract, immunoblot with anti-Bak
T1 construct: Produced in Sf9 cells by baculovirus and used as an NP-40 cell extract
T1 sequence: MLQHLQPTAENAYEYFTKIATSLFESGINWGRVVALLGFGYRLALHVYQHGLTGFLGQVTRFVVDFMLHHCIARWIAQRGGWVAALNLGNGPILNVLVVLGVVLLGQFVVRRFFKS

[2] = target: T2, Bak (expressed in yeast, used as lysate) (Homo sapiens (Human), UniProt Q16611 1-211, limits assumed); assay: GST fusion on glutathione-Sepharose column, yeast lysate expressing Bak, Western blot
T2 construct: also called full-length Bak
T2 sequence: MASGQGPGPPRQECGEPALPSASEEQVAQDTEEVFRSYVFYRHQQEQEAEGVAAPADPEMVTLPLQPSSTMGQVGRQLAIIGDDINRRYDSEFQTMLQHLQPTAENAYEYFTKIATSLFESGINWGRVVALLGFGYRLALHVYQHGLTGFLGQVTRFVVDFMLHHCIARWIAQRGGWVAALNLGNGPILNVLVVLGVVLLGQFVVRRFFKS

[3] = target: Bcl2 expressed as a fusion protein with the binding domain (BD) of GAL4 (yeast, UniProt P04386 1-147; P10415 1-239, limits assumed); assay: yeast two hybrid
[4] = target: Bax expressed as a fusion protein with the binding domain (BD) of GAL4 (yeast, UniProt P04386 1-147; Q07812 1-192, limits assumed); assay: yeast two hybrid
[5] = target: T3, BBP expressed as a fusion protein with the binding domain (BD) of GAL4 (yeast; human, UniProt P04386 1-147); assay: yeast two hybrid (GAL4 AD and BD fusions)
T3 construct: range 1-147; also called BBP-BD

[6] = target: T4, Bak expressed as a fusion protein with the binding domain (BD) of GAL4 (yeast, UniProt P04386 1-147); assay: yeast two hybrid (GAL4 AD and BD fusions)
T4 construct: range 1-147; Yeast two-hybrid bait; also called GAL4-Bak fusion protein

B1: gst fusion protein containing BBP-Loop2 (internal loop of BBP, amino acids 86 through 133) (other)
chain: HTGYIKVDWQRVEKDMKKAKEQLKIRKSNQIPTEVRSKAEEVVSFVKK
modifications: not fully specified (N-terminus); also: fused to glutathione-S-transferase (GST), not in chain
notes: It was subcloned into pGEX-5X in frame with gst; also called BBP-L2; gst-BBP-L2; not shown: glutathione-S-transferase (gst) as encoded by vector pGEX-5X (Pharmacia)
**Q.** Does B1 bind [1]?
**A.** no binding

**Q.** Does B1 bind [2]?
**A.** binds

B2: BBP expressed as a fusion protein with the activation domain (AD) of GAL4 (other, yeast)
chain: ANFNQSGNIADSSLSFTFTNSSNGPNLITTQTNSQALSQPIASSNVHDNFMNNEITASKIDDGNNSKPLSPGWTDQTAYNAFGITTGMFNTTTMDDVYNYLFDDEDTPPNPKKEMAASSQGNFEGNFESLDLAEFAKKQPWWRKLFGQESGPSAEKYSVATQLFIGGVTGWCTGFIFQKVGKLAATAVGGGFFLLQLANHTGYIKVDWQRVEKDMKKAKEQLKIRKSNQIPTEVRSKAEEVVSFVKKNVLVTGGFFGGFLLGMAS
notes: range 768-881; Yeast two-hybrid prey; also called BBP-AD
**Q.** Does B2 bind [3]?
**A.** no binding

**Q.** Does B2 bind [4]?
**A.** no binding

**Q.** Does B2 bind [5]?
**A.** binds

**Q.** Does B2 bind [6]?
**A.** binds

B3: gst fusion protein containing BBP-Loop1 (N-terminal 42 amino acid portion of BBP) (other)
chain: MAASSQGNFEGNFESLDLAEFAKKQPWWRKLFGQESGPSAEK
modifications: not fully specified (N-terminus); also: fused to glutathione-S-transferase (GST), not in chain
notes: It was subcloned into pGEX-5X in frame with gst; also called BBP-L1; gst-BBP-L1; not shown: glutathione-S-transferase (gst) as encoded by vector pGEX-5X (Pharmacia)
**Q.** Does B3 bind [2]?
**A.** binds

B4: gst fusion protein containing full-length BHRF-1 (other)
chain: MAYSTREILLALCIRDSRVHGNGTLHPVLELAARETPLRLSPEDTVVLRYHVLLEEIIERNSETFTETWNRFITHTEHVDLDFNSVFLEIFHRGDPSLGRALAWMAWCMHACRTLCCNQSTPYYVVDLSVRGMLEASEGLDGWIHQQGGWSTLIEDNIPGSRRFSWTLFLAGLTLSLLVICSYLFISRGRH
notes: not shown: glutathione-S-transferase (gst)
**Q.** Does B4 bind [2]?
**A.** binds
